From patent US20120316071A1 (published 2012)

Tests used:
[1] = molecular target: T1, rHuman Erythropoietin R/Fc Chimera, CF (R&D Systems Cat#963-ER) (human, UniProt P19235 25-250); assay: ECL multispot (MSD), antigen spotted, Fab in solution;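 also: purified Fab incubated 1 h at 20 °C on antigen-spotted wells, bound Fab detected via TAG detection antibody, ECL compared with each well's blank, ratio of 4 or above scored as hit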
T1 construct: Bought recombinant Fc chimera; also called EPO R; EPO R/Fc; Fc part of the bought chimera not given
T1 sequence (looked up): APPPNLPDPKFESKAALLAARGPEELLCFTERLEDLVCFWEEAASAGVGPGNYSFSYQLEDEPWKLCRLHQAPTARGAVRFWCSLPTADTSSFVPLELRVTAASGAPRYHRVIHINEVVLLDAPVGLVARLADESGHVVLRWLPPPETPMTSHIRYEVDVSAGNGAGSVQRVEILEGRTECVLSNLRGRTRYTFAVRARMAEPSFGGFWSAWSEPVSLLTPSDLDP

[2] = molecular target: T2, rHuman ErbB2/Fc Chimera, CF (R&D Systems Cat#1129-ER) (human, UniProt P04626 23-652); assay: as above
T2 construct: Bought recombinant Fc chimera; also called human epidermal growth factor 2 receptor; Fc part of the bought chimera not given

[3] = molecular target: T3, rHuman HGF R/c-MET/Fc Chimera, CF (R&D Systems Cat#358-MT/CF) (human, UniProt P08581 25-932); assay: as above
T3 construct: Bought recombinant Fc chimera; also called HGF R/Fc; hepatocyte growth factor receptor; Fc part of the bought chimera not given
T3 sequence (P08581 25-932, change not shown): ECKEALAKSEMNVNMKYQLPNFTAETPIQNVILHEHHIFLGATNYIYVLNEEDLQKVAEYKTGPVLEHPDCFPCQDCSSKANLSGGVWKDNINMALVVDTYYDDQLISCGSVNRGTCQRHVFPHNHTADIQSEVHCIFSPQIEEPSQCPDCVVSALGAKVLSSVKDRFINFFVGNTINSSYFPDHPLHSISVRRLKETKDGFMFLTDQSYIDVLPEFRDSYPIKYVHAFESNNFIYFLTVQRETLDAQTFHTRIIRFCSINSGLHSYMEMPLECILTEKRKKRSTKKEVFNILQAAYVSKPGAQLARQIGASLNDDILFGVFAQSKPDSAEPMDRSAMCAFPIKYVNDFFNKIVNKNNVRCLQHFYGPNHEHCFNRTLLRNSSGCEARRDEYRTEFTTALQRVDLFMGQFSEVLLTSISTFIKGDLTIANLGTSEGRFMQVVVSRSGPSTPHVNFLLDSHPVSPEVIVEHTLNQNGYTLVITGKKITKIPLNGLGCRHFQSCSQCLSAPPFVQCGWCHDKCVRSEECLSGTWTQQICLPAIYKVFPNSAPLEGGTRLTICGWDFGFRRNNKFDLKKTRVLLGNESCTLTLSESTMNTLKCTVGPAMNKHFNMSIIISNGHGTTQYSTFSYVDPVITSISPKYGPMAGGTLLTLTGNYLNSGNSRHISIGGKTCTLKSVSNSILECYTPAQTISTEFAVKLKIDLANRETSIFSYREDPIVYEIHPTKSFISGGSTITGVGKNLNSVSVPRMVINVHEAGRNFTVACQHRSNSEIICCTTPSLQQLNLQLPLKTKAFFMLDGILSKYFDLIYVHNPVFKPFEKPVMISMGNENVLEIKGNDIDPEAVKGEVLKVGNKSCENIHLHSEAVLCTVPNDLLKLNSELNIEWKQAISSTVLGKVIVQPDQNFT

[4] = molecular target: T4, rHuman IGF-1 sR, (IGF-1 sR), CF (R&D Systems Cat#391-GR) (human, UniProt P08069 31-932); assay: as above
T4 construct: Bought recombinant soluble receptor; The column head prints only 'IGF-1'; also called insulin-like growth factor-1 soluble receptor

[5] = molecular target: T5, rHuman P-Cadherin/Fc Chimera, CF (R&D Systems Cat#861-PC) (human, UniProt P22223 108-654); assay: as above
T5 construct: Bought recombinant Fc chimera; Fc part of the bought chimera not given

[6] = molecular target: T6, rHuman CD44/Fc Chimera, CF (R&D Systems Cat#3660-CD) (human, UniProt P16070 21-220); assay: as above
T6 construct: Bought recombinant Fc chimera; Fc part of the bought chimera not given

[7] = molecular target: T7, rHuman EGF R/Fc Chimera, CF (R&D Systems Cat#344-ER) (human, UniProt P00533 25-645); assay: as above
T7 construct: Bought recombinant Fc chimera; also called epidermal growth factor receptor; Fc part of the bought chimera not given

[8] = molecular target: T8, rHuman Notch-1/Fc Chimera, CF (R&D Systems Cat#3647-TK) (human, UniProt P46531 19-526); assay: as above
T8 construct: Bought recombinant Fc chimera; Fc part of the bought chimera not given

[9] = molecular target: T9, Recombinant Human DLL4 (delta-like protein 4) (human, UniProt Q9NR61 27-529); assay: 96-well plate ECL (MSD) binding assay on coated DLL4, 10 nM Fab
T9 construct: Bought recombinant human DLL4 (R&D Systems Cat#1506-D4/CF), coated on the plate; also called rHuman DLL4; Delta-like 4

[10] = molecular target: T9, Recombinant Human DLL4 (delta-like …); assay: ELISA on coated DLL4, 100 nM Fab

B1: Fab VH1-46_IGHD6-6*01_IGHJ1*01 S102A/S103P/S104F/H111F (APFF) & L6_IGKJ1*01 S28E (Fab, V domains shown)
VH: QVQLVQSGAEVKKPGASVKVSCKASGYTFTSYYMHWVRQAPGQGLEWMGIINPSGGSTSYAQKFQGRVTMTRDTSTSTVYMELSSLRSEDTAVYYCAREEYAPFSAEYFQFWGQGTLVTVSS
VL: EIVLTQSPATLSLSPGERATLSCRASQEVSSYLAWYQQKPGQAPRLLIYDASNRATGIPARFSGSGSGTDFTLTISSLEPEDFAVYYCQQRSNWPPWTFGQGTKVEIKR
notes: Fab; VH cloned into Plasmid A (CH1, His6 and Flag tags) and VL into Plasmid C (kappa CL); also called APFF / S28E
Q: B1 was tested. Which ECL signal [1] did it give?
A: 513

Q: And the ECL signal [2]?
A: 389

Q: What about the ECL signal [3] of the same binder?
A: 401

Q: And the ECL signal [4]?
A: 361

Q: And the ECL signal [5]?
A: 393

Q: And the ECL signal [6]?
A: 461

Q: What about the ECL signal [7] of the same binder?
A: 396

Q: What about the ECL signal [8] of the same binder?
A: 433

B2: Fab VH1-46_IGHD6-6*01_IGHJ1*01 S102A/S103P/S104F/H111F (APFF) & L6_IGKJ1*01 S30L (Fab, V domains shown)
VH: QVQLVQSGAEVKKPGASVKVSCKASGYTFTSYYMHWVRQAPGQGLEWMGIINPSGGSTSYAQKFQGRVTMTRDTSTSTVYMELSSLRSEDTAVYYCAREEYAPFSAEYFQFWGQGTLVTVSS
VL: EIVLTQSPATLSLSPGERATLSCRASQSVLSYLAWYQQKPGQAPRLLIYDASNRATGIPARFSGSGSGTDFTLTISSLEPEDFAVYYCQQRSNWPPWTFGQGTKVEIKR
notes: Fab; VH cloned into Plasmid A (CH1, His6 and Flag tags) and VL into Plasmid C (kappa CL); also called APFF / S30L
Q: Which ECL signal [1] does the source give for B2 here?
A: 540

Q: What about the ECL signal [2] of the same binder?
A: 270

Q: And the ECL signal [3]?
A: 315

Q: What about the ECL signal [4] of the same binder?
A: 332

Q: What about the ECL signal [5] of the same binder?
A: 351

Q: What about the ECL signal [6] of the same binder?
A: 295

Q: What about the ECL signal [7] of the same binder?
A: 406

Q: And the ECL signal [8]?
A: 389

B3: Fab VH1-46_IGHD6-6*01_IGHJ1*01 S102A/S103P/S104F/H111F (APFF) & L6_IGKJ1*01 S28M (Fab, V domains shown)
VH: QVQLVQSGAEVKKPGASVKVSCKASGYTFTSYYMHWVRQAPGQGLEWMGIINPSGGSTSYAQKFQGRVTMTRDTSTSTVYMELSSLRSEDTAVYYCAREEYAPFSAEYFQFWGQGTLVTVSS
VL: EIVLTQSPATLSLSPGERATLSCRASQMVSSYLAWYQQKPGQAPRLLIYDASNRATGIPARFSGSGSGTDFTLTISSLEPEDFAVYYCQQRSNWPPWTFGQGTKVEIKR
notes: Fab; VH cloned into Plasmid A (CH1, His6 and Flag tags) and VL into Plasmid C (kappa CL); also called APFF / S28M
Q: For B3, which ECL signal [1] is on record?
A: 360

Q: What about the ECL signal [2] of the same binder?
A: 271

Q: And the ECL signal [3]?
A: 305

Q: What about the ECL signal [4] of the same binder?
A: 341

Q: And the ECL signal [5]?
A: 410

Q: And the ECL signal [6]?
A: 313

Q: What about the ECL signal [7] of the same binder?
A: 320

Q: And the ECL signal [8]?
A: 382

B4: Fab VH1-46_IGHD6-6*01_IGHJ1*01 S102A/S103P/S104F/H111F (APFF) & L6_IGKJ1*01 S28I (Fab, V domains shown)
VH: QVQLVQSGAEVKKPGASVKVSCKASGYTFTSYYMHWVRQAPGQGLEWMGIINPSGGSTSYAQKFQGRVTMTRDTSTSTVYMELSSLRSEDTAVYYCAREEYAPFSAEYFQFWGQGTLVTVSS
VL: EIVLTQSPATLSLSPGERATLSCRASQIVSSYLAWYQQKPGQAPRLLIYDASNRATGIPARFSGSGSGTDFTLTISSLEPEDFAVYYCQQRSNWPPWTFGQGTKVEIKR
notes: Fab; VH cloned into Plasmid A (CH1, His6 and Flag tags) and VL into Plasmid C (kappa CL); also called APFF / S28I
Q: What does the source list for B4?
A: ECL signal [1]: 450; ECL signal [2]: 265; ECL signal [3]: 369; ECL signal [4]: 353; ECL signal [5]: 416; ECL signal [6]: 412; ECL signal [7]: 386; ECL signal [8]: 442

B5: Fab VH1-46_IGHD6-6*01_IGHJ1*01 S102A/S103P/S104F/H111F S54V & L6_IGKJ1*01 (Fab, V domains shown)
VH: QVQLVQSGAEVKKPGASVKVSCKASGYTFTSYYMHWVRQAPGQGLEWMGIINPVGGSTSYAQKFQGRVTMTRDTSTSTVYMELSSLRSEDTAVYYCAREEYAPFSAEYFQFWGQGTLVTVSS
VL: not shown
notes: Fab made in E. coli; CH1 with tags and kappa CL are not included; also called APFF S54V
Q: What does the source list for B5?
A: ECL signal [9]: 22200; ELISA signal [10]: 0

B6: Fab VH1-46_IGHD6-6*01_IGHJ1*01 S102A/S103P/S104F/H111F (APFF) & L6_IGKJ1*01 S30D (Fab, V domains shown)
VH: QVQLVQSGAEVKKPGASVKVSCKASGYTFTSYYMHWVRQAPGQGLEWMGIINPSGGSTSYAQKFQGRVTMTRDTSTSTVYMELSSLRSEDTAVYYCAREEYAPFSAEYFQFWGQGTLVTVSS
VL: EIVLTQSPATLSLSPGERATLSCRASQSVDSYLAWYQQKPGQAPRLLIYDASNRATGIPARFSGSGSGTDFTLTISSLEPEDFAVYYCQQRSNWPPWTFGQGTKVEIKR
notes: Fab; VH cloned into Plasmid A (CH1, His6 and Flag tags) and VL into Plasmid C (kappa CL); also called APFF / S30D
Q: B6 was tested. Which ECL signal [1] did it give?
A: 496

Q: And the ECL signal [2]?
A: 284

Q: What about the ECL signal [3] of the same binder?
A: 312

Q: What about the ECL signal [4] of the same binder?
A: 357

Q: And the ECL signal [5]?
A: 543

Q: What about the ECL signal [6] of the same binder?
A: 434

Q: And the ECL signal [7]?
A: 325

Q: And the ECL signal [8]?
A: 415

B7: Fab VH1-46_IGHD6-6*01_IGHJ1*01 S102A/S103P/S104F/H111F S54Q & L6_IGKJ1*01 (Fab, V domains shown)
VH: QVQLVQSGAEVKKPGASVKVSCKASGYTFTSYYMHWVRQAPGQGLEWMGIINPQGGSTSYAQKFQGRVTMTRDTSTSTVYMELSSLRSEDTAVYYCAREEYAPFSAEYFQFWGQGTLVTVSS
VL: not shown
notes: Fab made in E. coli; also called APFF S54Q
Q: Which “ECL signal” value [9] does the source give for B7 here?
A: 41800

Q: What about the “ELISA signal” value [10] of the same binder?
A: 0.07
